From US7026125, “Heterodimers of retinoid X receptors (RXRS) and other steroid hormone receptors” (Ligand Pharmaceuticals) come the findings set out here.

The target of one data set is RARα/RXRα heterodimer (Homo sapiens, UniProt P10276;P19793 P10276:1-462,P19793:1-462). In words: EMSA. The conditions noted are these: label: 32P. As to the method: (§1) (a) In vitro synthesized TRα, TRβ, RARα, RARβ, RARγ and TRα2 receptor proteins were preincubated either with (+) or without (−) equal amount of in vitro synthesized RXRα protein at room temperature for 10 minutes. Following this preincubation, the reaction mixtures were incubated with ^32p-labelled palindromic TRE (for 1 sequence see FIG. 2a) and analyzed by gel retardation assay as described in Experimental Procedures. […] As a control, equal amounts of TRα and RARα proteins were also mixed and incubated with labelled TRE.
(§2) In vitro translated receptor protein (1 to 5 μl depending on the translation efficiency) was incubated with the ^32P-labeled oligonucleotides in a 20-μl reaction mixture containing 10 mM hepes buffer, pH 7.9, 50 mM KCl, 1 mM DTT, 2.5 mM MgCl, 10% glycerol, and 1 μg of poly(dI-dC) at 25° C. for 20 minutes. In general, relative low receptor concentration was used to obtain the clear effect of heterodimer formation. The reaction mixture was then loaded on a 5% nondenaturing ployacrylamide gel containing 0.5×TBE (1×TBE=0.089 M Tris-borate, 0.089 M boric acid, and 0.002 M EDTA). To analyze the effect of RXRα or the nuclear proteins on receptor DNA binding activity, RXRα or the cell extracts were preincubated with receptor protein at room temperature for 10 minutes before performing the DNA binding assay. When antibody was used, 1 μl of the antiserum was incubated with the specific translation products at room temperature for 45 minutes before performing the experiments described above.

The target in another data set is RARβ/RXRα heterodimer (UniProt P10826-2;P19793 P10826-2:1-448,P19793:1-462). Briefly: EMSA. The conditions noted are these: label: 32P. As to the method:
as §1, §2
A general note: In EMSA bound probe runs differently from free probe, usually more slowly.

In another data set the target is T1, TRβ (UniProt P10828 P10828:1-461).
T1 sequence: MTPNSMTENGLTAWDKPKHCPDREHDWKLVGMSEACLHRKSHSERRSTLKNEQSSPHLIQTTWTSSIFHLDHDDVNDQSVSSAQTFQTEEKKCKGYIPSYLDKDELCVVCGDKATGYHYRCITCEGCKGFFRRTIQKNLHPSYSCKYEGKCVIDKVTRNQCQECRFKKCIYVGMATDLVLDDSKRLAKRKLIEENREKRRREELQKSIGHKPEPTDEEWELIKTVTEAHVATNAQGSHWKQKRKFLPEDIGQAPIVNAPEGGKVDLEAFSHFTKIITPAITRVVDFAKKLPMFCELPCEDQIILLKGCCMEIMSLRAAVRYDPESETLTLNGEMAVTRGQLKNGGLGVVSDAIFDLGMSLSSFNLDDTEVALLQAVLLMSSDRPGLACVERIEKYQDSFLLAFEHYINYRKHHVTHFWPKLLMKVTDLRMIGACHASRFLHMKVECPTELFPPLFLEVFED
In words: EMSA. The following applies: label: 32P. As for the experimental part: as §1, §2

The next data set concerns the target RARγ/RXRα heterodimer (UniProt P13631;P19793 P13631:1-454,P19793:1-462). Briefly: EMSA. The following applies: label: 32P. As to the method:
as §1, §2

Another data set concerns the target T2, TRαm3 (UniProt P10827-2 P10827-2:1-167, C-terminal deletion of 243 aa).
T2 sequence: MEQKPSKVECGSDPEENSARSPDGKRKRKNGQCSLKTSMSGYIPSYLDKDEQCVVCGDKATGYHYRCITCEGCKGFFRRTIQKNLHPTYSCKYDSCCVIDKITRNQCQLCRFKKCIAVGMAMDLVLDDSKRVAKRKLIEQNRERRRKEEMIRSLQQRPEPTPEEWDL
Briefly: EMSA; several complexes. The following applies: label: 32P. As to the method:
as §2

Another data set deals with T3, TRαm2 (UniProt P10827-2 P10827-2:1-213, C-terminal deletion of 197 aa).
T3 sequence: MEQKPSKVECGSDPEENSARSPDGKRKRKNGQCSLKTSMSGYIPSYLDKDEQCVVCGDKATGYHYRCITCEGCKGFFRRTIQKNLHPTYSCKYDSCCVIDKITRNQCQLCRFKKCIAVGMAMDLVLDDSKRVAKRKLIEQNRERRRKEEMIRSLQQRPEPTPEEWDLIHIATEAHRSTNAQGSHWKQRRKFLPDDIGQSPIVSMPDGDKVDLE
In words: EMSA; several complexes. The conditions noted are these: label: 32P. As to the method:
as §2

The next data set concerns the target RARγ + RXRαm5 (UniProt P13631;P19793 P13631:1-454,P19793:198-462, RXRα N-terminal deletion of 198 aa including DNA binding domain). Briefly: EMSA. The conditions noted are these: label: 32P. As to the method: as §2
The target of another data set is TRα/RXRαm3 (UniProt P10827-2;P19793 P10827-2:1-410,P19793:28-462, RXRα N-terminal deletion of 28 aa). Briefly: EMSA. The conditions noted are these: label: 32P. As to the method:
as §2

The target in a further data set is RARγ/RXRαm3 (UniProt P13631;P19793 P13631:1-454,P19793:28-462, RXRα N-terminal deletion of 28 aa). In words: EMSA. The conditions noted are these: label: 32P. As to the method: as §2
The next data set has as its target TRβ/RXRα heterodimer (UniProt P10828;P19793 P10828:1-461,P19793:1-462). In words: EMSA; upshifted complex. The following applies: label: 32P. As for the experimental part: as §1
as §2, with “When antibody was used, 1 μl of the antiserum was incubated with the specific translation products at room temperature for 45 minutes before performing the experiments described above.” left out

Another data set concerns the target TRα/RXRα heterodimer (UniProt P10827-2;P19793 P10827-2:1-410,P19793:1-462). In words: EMSA; at least an order of magnitude more effective than either alone; T3 or RA no clear effect. The conditions noted are these: label: 32P. As to the method:
as §1
as §2, with “When antibody was used, 1 μl of the antiserum was incubated with the specific translation products at room temperature for 45 minutes before performing the experiments described above.” left out

The target of data set [1] is Flag-TRα/RXRα heterodimer (UniProt P10827-2;P19793 P10827-2:1-410,P19793:1-462). In words: EMSA; inhibited by anti-Flag. The conditions noted are these: tags: N-terminal Flag on TRα; label: 32P. As to the method:
(b) Effect of anti-Flag-TRα antibody on binding of the slow migrating complex. In vitro synthesized Flag-TRα (F-TRα) protein was incubated with in vitro synthesized RXRα protein in the presence or absence of anti-Flag antibody. The effect of antibody on DNA binding of the slow migrating complex was analyzed as described in FIG. 2a. For control, the receptor mixture was also incubated with preimmune serum (NI). The effect of anti-Flag antibody on DNA binding of Flag-RXRα, RXRα, Flag-TRα, and TRα was also analyzed. For comparison, anti-Flag antibody/Flag-RXRα-TRα interaction was run on the same gel (lanes 7–10).
In vitro translated receptor protein (1 to 5 μl depending on the translation efficiency) was incubated with the ^32P-labeled oligonucleotides in a 20-μl reaction mixture containing 10 mM hepes buffer, pH 7.9, 50 mM KCl, 1 mM DTT, 2.5 mM MgCl, 10% glycerol, and 1 μg of poly(dI-dC) at 25° C. for 20 minutes. In general, relative low receptor concentration was used to obtain the clear effect of heterodimer formation. The reaction mixture was then loaded on a 5% nondenaturing ployacrylamide gel containing 0.5×TBE (1×TBE=0.089 M Tris-borate, 0.089 M boric acid, and 0.002 M EDTA). […]

Chain of RARβ/RXRα heterodimer (P10826 other isoform, or with tags, fused parts or gaps, chain 1 of 2): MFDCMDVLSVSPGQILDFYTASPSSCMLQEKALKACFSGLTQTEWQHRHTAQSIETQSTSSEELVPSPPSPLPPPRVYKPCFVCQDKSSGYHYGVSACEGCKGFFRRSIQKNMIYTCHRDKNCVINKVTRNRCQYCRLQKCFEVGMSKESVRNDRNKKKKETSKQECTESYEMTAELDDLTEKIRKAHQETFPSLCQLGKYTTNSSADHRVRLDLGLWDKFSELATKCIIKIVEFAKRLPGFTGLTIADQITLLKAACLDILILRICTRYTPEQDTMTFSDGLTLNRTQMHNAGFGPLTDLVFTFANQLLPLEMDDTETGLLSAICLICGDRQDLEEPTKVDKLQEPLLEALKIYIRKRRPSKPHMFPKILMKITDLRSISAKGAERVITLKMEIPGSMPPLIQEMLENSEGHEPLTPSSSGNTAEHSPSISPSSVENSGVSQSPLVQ
Chain of RARβ/RXRα heterodimer (P19793 whole entry, chain 2 of 2): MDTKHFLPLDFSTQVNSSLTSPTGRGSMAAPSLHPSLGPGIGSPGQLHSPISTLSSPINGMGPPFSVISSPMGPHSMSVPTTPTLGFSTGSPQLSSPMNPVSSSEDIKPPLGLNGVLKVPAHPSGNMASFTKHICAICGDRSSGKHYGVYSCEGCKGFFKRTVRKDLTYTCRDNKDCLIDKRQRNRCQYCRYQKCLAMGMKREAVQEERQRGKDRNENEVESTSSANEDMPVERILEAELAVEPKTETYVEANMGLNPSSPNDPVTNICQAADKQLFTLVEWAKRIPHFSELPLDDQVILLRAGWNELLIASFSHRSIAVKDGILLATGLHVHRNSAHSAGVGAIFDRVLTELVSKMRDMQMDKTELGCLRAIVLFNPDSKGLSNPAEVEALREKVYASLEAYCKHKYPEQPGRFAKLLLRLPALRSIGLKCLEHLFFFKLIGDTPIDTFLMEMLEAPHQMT
Chain of TRβ/RXRα heterodimer (P19793 whole entry, chain 2 of 2, one chain of several): as the sequence (P19793 whole entry, chain 2 of 2) above
Chain of TRα/RXRαm3 (P19793 29-462, stated change not applied, one chain of several): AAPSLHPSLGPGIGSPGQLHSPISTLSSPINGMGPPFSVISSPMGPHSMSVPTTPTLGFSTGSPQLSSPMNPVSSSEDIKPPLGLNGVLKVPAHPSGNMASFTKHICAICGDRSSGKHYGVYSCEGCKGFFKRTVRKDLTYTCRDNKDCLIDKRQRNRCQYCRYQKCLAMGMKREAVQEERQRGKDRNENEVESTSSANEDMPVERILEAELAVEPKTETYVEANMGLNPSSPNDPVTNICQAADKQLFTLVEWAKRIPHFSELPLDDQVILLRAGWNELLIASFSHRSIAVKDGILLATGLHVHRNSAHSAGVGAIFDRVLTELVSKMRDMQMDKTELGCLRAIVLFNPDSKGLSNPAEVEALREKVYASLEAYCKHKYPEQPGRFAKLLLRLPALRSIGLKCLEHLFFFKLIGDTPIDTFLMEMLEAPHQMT
Chain of Flag-TRα/RXRα heterodimer (P19793 whole entry, one chain of several): as the sequence (P19793 whole entry, chain 2 of 2) above
Chain of TRα/RXRα heterodimer (P19793 whole entry, one chain of several): as the sequence (P19793 whole entry, chain 2 of 2) above
Chain of RARα/RXRα heterodimer (P10276 whole entry, chain 1 of 2): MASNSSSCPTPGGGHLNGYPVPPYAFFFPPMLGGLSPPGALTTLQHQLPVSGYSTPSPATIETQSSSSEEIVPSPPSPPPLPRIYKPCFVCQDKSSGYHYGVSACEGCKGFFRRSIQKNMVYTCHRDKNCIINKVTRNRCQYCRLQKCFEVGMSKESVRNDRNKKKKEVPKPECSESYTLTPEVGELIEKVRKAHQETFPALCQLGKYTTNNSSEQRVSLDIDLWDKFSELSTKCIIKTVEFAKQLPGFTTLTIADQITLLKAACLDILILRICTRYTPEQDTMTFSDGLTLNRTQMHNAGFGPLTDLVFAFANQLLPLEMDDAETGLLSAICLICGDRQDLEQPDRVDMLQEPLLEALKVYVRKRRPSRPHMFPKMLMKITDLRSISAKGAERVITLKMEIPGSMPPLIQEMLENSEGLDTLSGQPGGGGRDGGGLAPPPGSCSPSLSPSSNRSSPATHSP
Chain of RARα/RXRα heterodimer (P19793 whole entry, chain 2 of 2): as the sequence (P19793 whole entry, chain 2 of 2) above
Chain of RARγ/RXRαm3 (P13631 whole entry, stated change not applied, chain 1 of 2): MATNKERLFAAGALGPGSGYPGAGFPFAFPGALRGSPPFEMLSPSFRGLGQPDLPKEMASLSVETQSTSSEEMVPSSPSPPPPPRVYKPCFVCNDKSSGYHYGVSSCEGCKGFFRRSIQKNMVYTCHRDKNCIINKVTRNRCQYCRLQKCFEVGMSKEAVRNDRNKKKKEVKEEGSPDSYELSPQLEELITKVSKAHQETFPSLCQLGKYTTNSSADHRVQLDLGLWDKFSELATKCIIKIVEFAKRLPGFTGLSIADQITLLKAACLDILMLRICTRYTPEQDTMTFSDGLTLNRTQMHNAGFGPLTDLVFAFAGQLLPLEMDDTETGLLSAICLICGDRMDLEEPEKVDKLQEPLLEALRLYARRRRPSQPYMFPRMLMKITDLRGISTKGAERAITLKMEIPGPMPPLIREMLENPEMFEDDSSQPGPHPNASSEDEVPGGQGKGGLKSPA
Chain of RARγ/RXRαm3 (P19793 29-462, stated change not applied, chain 2 of 2): as the sequence (P19793 29-462, stated change not applied, one chain of several) above
Chain of RARγ/RXRα heterodimer (P13631 whole entry, chain 1 of 2): as the sequence (P13631 whole entry, stated change not applied, chain 1 of 2) above
Chain of RARγ/RXRα heterodimer (P19793 whole entry, chain 2 of 2): as the sequence (P19793 whole entry, chain 2 of 2) above
Chain of RARγ + RXRαm5 (P13631 whole entry, stated change not applied, chain 1 of 2, the tested form may be a part): as the sequence (P13631 whole entry, stated change not applied, chain 1 of 2) above
Chain of RARγ + RXRαm5 (P19793 199-462, stated change not applied, chain 2 of 2): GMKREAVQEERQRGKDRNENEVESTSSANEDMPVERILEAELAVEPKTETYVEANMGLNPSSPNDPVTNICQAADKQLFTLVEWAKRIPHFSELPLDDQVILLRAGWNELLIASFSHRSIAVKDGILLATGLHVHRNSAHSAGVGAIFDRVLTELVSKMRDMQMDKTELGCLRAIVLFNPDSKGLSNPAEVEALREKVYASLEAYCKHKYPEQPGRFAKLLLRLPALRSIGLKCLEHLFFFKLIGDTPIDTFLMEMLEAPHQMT

B1: palindromic TRE (dsDNA)
DNA 1: GATCTCAGGTCATGACCTGAGATC
DNA 2: GATCTCAGGTCATGACCTGAGATC
For the molecule B1, the binding result in the data set with RARα/RXRα heterodimer, with RARβ/RXRα heterodimer, with TRβ, with RARγ/RXRα heterodimer, with TRαm3 and with TRαm2 was “binds” each time. Moreover, the binding result in the data set with RARγ + RXRαm5 was “no binding”; with TRα/RXRαm3, “binds”; in the data set with RARγ/RXRαm3 it was “binds”; with TRβ/RXRα heterodimer, “binds”; in the data set with TRα/RXRα heterodimer, “binds”; in data set [1], “binds”.
